According to patent publication US20090081238A1 (Genentech, published 2009):

Legend:
[1] = target: T1, mFLAG-EGF34+NRR-His6, the mouse Notch1 NRR immunogen (Notch1 V1307-Q1723) (mouse, UniProt Q01705 1307-1723); test: SPR (BIAcore-3000), IgG captured by anti-human IgG, NRR1-ECD injected 3.9-500 nM, 25 C
T1 construct: the rest carries an N-terminal FLAG tag and a C-terminal His tag; also called mNotch1 NRR; murine NRR1
Protocol: (§1) To further characterize the binding affinity and binding kinetics of the anti-Notch1 NRR Mabs, surface plasmon resonance (SRP) measurement with a BIAcore™-3000 was used (BIAcore, Inc., Piscataway, N.J.). Briefly, carboxymethylated dextran biosensor chips (CM5, BIAcore Inc.) were activated with N-ethyl-N′-(3-dimethylaminopropyl)-carbodiimide hydrochloride (EDC) and N-hydroxysuccinimide (NHS) according to the supplier's instructions. Rabbit anti human antibody (Pierce) was diluted with 100 mM sodium acetate, pH 4.8, into 20 μg/ml before injection at a flow rate of 5 μl/minute to achieve approximately 3000 response units (RU) of coupled antibody. Next, 1M ethanolamine was injected to block unreacted groups. Anti-NRR1 mab (formatted as a full-length IgG) was captured by rabbit anti-human IgG coated on the chips to achieve approximately 200 response units (RU). For kinetics measurements, two-fold serial dilutions of human NRR1-ECD or murine NRR1-ECD proteins (3.9 nM to 500 nM) were injected in PBT buffer (PBS with 0.05% Tween 20) at 25° C. with a flow rate of 30 μl/min. Association rates (kₒₙ) and dissociation rates (koff) were calculated using a simple one-to-one Langmuir binding model (BIAcore Evaluation Software version 3.2). The equilibrium dissociation constant (KD) was calculated as the ratio koff/kₒₙ.

[2] = target: T2, hFLAG-EGF34+NRR-His6 (101V), the human Notch1 NRR immunogen (Notch1 V1307-Q1733) (human, UniProt P46531 1307-1733); test: as above
T2 construct: also called hNotch1 NRR; human NRR1
Protocol: as §1

[3] = target: mEGF34+NRR-L1597H-FLAG-TEV-Fc (mouse) (UniProt Q01705); test: ELISA, target coated on the plate at 1 ug/ml, IgG titrated in 3-fold steps, detected with peroxidase anti-human Fab; A630
human Notch3 NRR = target: T3, human Notch3 NRR (human, UniProt Q9UM47 1378-1643, limits assumed); test: cross-reactivity test of the IgG (method not detailed)
T3 construct: domain: NRR; Construct not described; also called human NRR3

murine Notch3 NRR = target: T4, murine Notch3 NRR (mouse, UniProt Q61982 1379-1643, limits assumed); test: as above
T4 construct: domain: NRR; Construct not described; also called mouse NRR3

murine Notch2 NRR = target: T5, murine Notch2 NRR (mouse, UniProt O35516 1425-1679); test: as above
T5 construct: domain: NRR; Construct not described; also called mouse NRR2
T5 sequence (looked up): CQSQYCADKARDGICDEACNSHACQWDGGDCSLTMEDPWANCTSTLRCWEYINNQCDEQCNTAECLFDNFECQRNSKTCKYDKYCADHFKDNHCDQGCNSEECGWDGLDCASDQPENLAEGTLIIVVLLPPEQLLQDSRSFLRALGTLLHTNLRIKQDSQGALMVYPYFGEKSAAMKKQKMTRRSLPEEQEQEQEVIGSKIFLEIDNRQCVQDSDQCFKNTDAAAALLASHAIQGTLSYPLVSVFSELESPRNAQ

human Notch4 NRR = target: T6, human Notch4 NRR (human, UniProt Q99466 1172-1447, limits assumed); test: as above
T6 construct: domain: NRR; Construct not described; also called human NRR4
T6 sequence (looked up): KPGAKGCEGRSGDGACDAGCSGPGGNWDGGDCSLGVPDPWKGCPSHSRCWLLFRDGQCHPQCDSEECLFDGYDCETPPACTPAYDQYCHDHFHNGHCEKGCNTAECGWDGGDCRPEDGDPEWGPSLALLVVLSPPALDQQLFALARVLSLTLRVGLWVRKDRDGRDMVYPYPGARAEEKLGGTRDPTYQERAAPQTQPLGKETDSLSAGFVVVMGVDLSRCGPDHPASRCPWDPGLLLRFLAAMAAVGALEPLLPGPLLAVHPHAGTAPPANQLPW

murine Notch4 NRR = target: T7, murine Notch4 NRR (mouse, UniProt P31695 1168-1443, limits assumed); test: as above
T7 construct: domain: NRR; Construct not described; also called mouse NRR4
T7 sequence (looked up): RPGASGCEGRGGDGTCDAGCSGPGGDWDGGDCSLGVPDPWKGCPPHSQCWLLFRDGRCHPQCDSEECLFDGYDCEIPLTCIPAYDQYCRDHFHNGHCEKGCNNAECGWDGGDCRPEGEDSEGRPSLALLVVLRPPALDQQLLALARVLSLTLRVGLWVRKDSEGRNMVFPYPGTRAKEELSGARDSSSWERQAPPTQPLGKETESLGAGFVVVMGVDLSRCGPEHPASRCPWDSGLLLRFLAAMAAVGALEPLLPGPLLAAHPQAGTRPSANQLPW

human Notch2 NRR = target: T8, human Notch2 NRR (human, UniProt Q04721 1425-1677); test: as above
T8 construct: domain: NRR; Construct not described; also called human NRR2
T8 sequence (looked up): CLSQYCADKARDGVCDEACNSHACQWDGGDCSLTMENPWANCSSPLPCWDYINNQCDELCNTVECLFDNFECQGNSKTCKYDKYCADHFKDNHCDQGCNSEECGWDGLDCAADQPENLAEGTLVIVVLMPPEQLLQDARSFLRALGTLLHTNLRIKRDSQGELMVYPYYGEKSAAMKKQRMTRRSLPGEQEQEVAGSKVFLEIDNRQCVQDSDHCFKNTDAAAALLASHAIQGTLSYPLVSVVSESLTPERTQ

[4] = target: human Notch1 (on NIH-3T3 cells) (human, UniProt P46531 19-2555); test: cell-based or functional assay
[5] = target: T1, mFLAG-EGF34+NRR-His6, the mouse Notch1 …; test: ELISA, target coated on the plate at 1 ug/ml, IgG titrated in 3-fold steps, detected with peroxidase anti-human Fab; A630
Protocol: (§2) 1 μg/ml of proteins in PBS, pH 7.4, were coated on ELISA plates (Nunc Maxisorp) at 4° C. overnight. Plates were blocked with Casein blocker in PBS (phosphate buffered saline; Pierce) for one hour at room temperature. Serial 3-fold dilutions of anti Notch1 NRR IgGs or irrelevant IgG in PBST buffer (PBT buffer (PBS+0.05% (v/v) Tween 20) with 0.5% (w/v) BSA) were added to the plates and incubated for one hour at room temperature. The plates were then washed with PBST and bound antibodies were detected with peroxidase-conjugated goat anti human Fab specific IgG (Sigma). TMB substrate (3,3′,5,5′-etramethylbenzidine) was used and absorbance at 650 nm was read using a standard ELISA plate reader. Absorbance was plotted against concentrations of IgGs using KaleidaGraph (Synergy Software).

hFLAG-NRR-His6 (102V) = target: T9, hFLAG-NRR-His6 (102V) (human, UniProt P46531 1447-1733); test: as above
T9 construct: no EGF-like repeats; not shown: FLAG tag; thrombin cleavage site and HIS tag
Protocol: as §2

[6] = target: T2, hFLAG-EGF34+NRR-His6 (101V), the human …; test: as above
Protocol: as §2

T1 sequence (Q01705 other isoform, or with tags, fused parts or gaps): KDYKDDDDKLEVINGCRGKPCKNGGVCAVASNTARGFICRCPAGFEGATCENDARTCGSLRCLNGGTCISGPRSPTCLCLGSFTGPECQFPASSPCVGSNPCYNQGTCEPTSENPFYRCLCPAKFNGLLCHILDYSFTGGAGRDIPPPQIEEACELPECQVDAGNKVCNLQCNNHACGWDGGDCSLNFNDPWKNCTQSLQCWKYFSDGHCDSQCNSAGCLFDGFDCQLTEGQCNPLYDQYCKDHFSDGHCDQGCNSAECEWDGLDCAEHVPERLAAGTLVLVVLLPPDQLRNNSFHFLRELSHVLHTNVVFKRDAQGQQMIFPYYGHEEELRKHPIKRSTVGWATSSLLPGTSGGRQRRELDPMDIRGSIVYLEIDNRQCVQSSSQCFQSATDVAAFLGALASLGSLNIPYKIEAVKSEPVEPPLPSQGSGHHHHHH
mEGF34+NRR-L1597H-FLAG-TEV-Fc (mouse), sequence (Q01705 1307-1723, stated change not applied): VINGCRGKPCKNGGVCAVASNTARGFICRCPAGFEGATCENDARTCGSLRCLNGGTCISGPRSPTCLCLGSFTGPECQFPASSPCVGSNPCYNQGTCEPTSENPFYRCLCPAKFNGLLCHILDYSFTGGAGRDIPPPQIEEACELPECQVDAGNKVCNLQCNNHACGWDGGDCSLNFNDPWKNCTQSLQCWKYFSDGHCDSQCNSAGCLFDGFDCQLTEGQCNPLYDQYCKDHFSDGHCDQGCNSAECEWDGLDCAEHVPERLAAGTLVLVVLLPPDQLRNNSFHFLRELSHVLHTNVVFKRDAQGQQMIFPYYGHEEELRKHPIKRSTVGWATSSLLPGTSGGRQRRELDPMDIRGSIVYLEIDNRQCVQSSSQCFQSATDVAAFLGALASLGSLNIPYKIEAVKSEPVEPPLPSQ
T4 sequence (Q61982 1379-1643 limits assumed): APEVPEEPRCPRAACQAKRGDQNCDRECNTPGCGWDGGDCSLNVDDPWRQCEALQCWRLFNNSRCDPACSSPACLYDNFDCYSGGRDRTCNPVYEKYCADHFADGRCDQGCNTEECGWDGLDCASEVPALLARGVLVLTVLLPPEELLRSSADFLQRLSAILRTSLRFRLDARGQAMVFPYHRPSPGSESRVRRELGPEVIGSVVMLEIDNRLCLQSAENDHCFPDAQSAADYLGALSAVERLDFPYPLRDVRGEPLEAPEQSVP
T3 sequence (Q9UM47 1378-1643 limits assumed): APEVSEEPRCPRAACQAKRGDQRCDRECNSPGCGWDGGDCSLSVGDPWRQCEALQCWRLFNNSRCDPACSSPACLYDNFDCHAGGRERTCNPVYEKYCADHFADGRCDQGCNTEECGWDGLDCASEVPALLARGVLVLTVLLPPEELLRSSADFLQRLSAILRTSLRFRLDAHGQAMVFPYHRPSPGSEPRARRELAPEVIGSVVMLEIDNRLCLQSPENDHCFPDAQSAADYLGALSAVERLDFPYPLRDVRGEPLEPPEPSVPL

B1: Antibody A (antibody, V domains shown)
VH: EVQLVESGGGLVQPGGSLRLSCAASGFTFSSYWIHWVRQAPGKGLEWVARINPSNGSTNYADSVKGRFTISADTSKNTAYLQMNSLRAEDTAVYYCARGSGFRWVMDYWGQGTLVTVSS
VL: DIQMTQSPSSLSASVGDRVTITCRASQDVSTAVAWYQQKPDGTVKLLIYSASFLYSGVPSRFSGSGSGTDFTLTISSLQPEDFATYYCQQSYTTPPTFGQGTKVEIKR
notes: Tested as full-length human IgG1 (hIgG1) made in CHO cells; also called anti-Notch1 NRR Antibody A; Antibody A-hIgG1
Kd [1]: 231 nM
koff [1]: 0.021 s⁻¹
kon [1]: 91000 M⁻¹ s⁻¹
Kd [2]: 134 nM
koff [2]: 0.011 s⁻¹
kon [2]: 82000 M⁻¹ s⁻¹
EC50 (read off the curve) [3]: 0.04 µg/mL
binding result (human Notch3 NRR): no binding
binding result (murine Notch3 NRR): no binding
binding result (murine Notch2 NRR): no binding
binding result (human Notch4 NRR): no binding
binding result (murine Notch4 NRR): no binding
binding result (human Notch2 NRR): no binding
Co-culture blocking, IC50 [4]: ~0.1 µg/mL
EC50 (read off the curve) [5]: ~0.05 µg/mL
EC50 (read off the curve) (hFLAG-NRR-His6 (102V)): ~0.07 µg/mL
EC50 (read off the curve) [6]: ~0.07 µg/mL
